Patent publication US20260022343A1 (AFFYXELL THERAPEUTICS, published 2026)
Values joined by “and” are separate entries in the source; they are usually repeats but may differ in a detail not shown here. Equal entries are not always repeated.

B1: TNFR2-binding stefin A variant CLONE 100 (designed binder)
chain: MIPRGLSEAKPATPEIQEIVDKVKPQLEEKTGETYGKLEAVQYKTQVLAQSWDKHYQLRESTNYYIKVRAGDNKYMHLKVFNGPEVPHHAHGVADRVLTGYQVDKNKDDELTGFAAAEQKLISEEDLAAHHHHHH
B2: TNFR2-binding stefin A variant CLONE 009 (designed binder)
chain: MIPGGLSEAKPATPEIQEIVDKVKPQLEEKTGETYGKLEAVQYKTQVVRLFHIWRWWGTNYYIKVRAGDNKYMHLKVFKSLIHIYTDSIQEDLVLTGYQVDKNKDDELTGFAAAEQKLISEEDLAAHHHHHH
notes: also called clone 9
B3: TNFR2-binding stefin A variant CLONE 026 (designed binder)
chain: MIPRGLSEAKPATPEIQEIVDKVKPQLEEKTGETYGKLEAVQYKTQVLALEIPSAIIYSTNYYIKVRAGDNKYMHLKVFNGPYFWGDQEHWADRVLTGYQVDKNKDDELTGFAAAEQKLISEEDLAAHHHHHH
notes: also called clone 26
B4: TNFR2-binding stefin A variant CLONE 044 (designed binder)
chain: MIPGGLSEAKPATPEIQEIVDKVKPQLEEKTGETYGKLEAVQYKTQVVLFPEAVYWVGTNYYIKVRAGDNKYMHLKVFKSLIWNDNAAQHEDLVLTGYQVDKNKDDELTGFAAAEQKLISEEDLAAHHHHHH
notes: also called clone 44
B5: anti-CD40L stefin A protein variant XT75 (SEQ ID NO: 105), secreted by gene-introduced MSC (eMSC) (designed binder)
chain: IPGGLSEAKPATPEIQEIVDKVKPQLEEKTGETYGKLEAVQYKTQVVHYYVHYNDQGTNYYIKVRAGDNKYMHLKVFKSLWGENLFAKWEDLVLTGYQVDKNKDDELTGFAEAAAKEAAAKEAAAKEAAAKEAAAKEAAAKMIPGGLSEAKPATPEIQEIVDKVKPQLEEKTGETYGKLEAVQYKTQVVHYYVHYNDQGTNYYIKVRAGDNKYMHLKVFKSLWGENLFAKWEDLVLTGYQVDKNKDDELTGFAEAAAKEAAAKEAAAKEAAAKEAAAKEAAAKMIPGGLSEAKPATPEIQEIVDKVKPQLEEKTGETYGKLEAVQYKTQVVHYYVHYNDQGTNYYIKVRAGDNKYMHLKVFKSLWGENLFAKWEDLVLTGYQVDKNKDDELTGFAEAAAKEAAAKEAAAKEAAAKEAAAKEAAAKMIPRGLSEAKPATPEIQEIVDKVKPQLEEKTGETYGKLEAVQYKTQVLANFFQRRWPGSTNYYIKVRAGDNKYMHLKVFNGPWKFRNTDRGADRVLTGYQVDKNKDDELTGF
notes: By their DNA these vectors appear to encode a further C-terminal Myc/His tag and a T2A remnant; also called AFX01-230 XT75(C); eMSC (XT75, w/EF1A)
B6: TNFR2-binding stefin A variant CLONE 001 (designed binder)
chain: MIPGGLSEAKPATPEIQEIVDKVKPQLEEKTGETYGKLEAVQYKTQVVGQDQWGNYAGTNYYIKVRAGDNKYMHLKVFKSLPDIPHNHWHEDLVLTGYQVDKNKDDELTGFAAAEQKLISEEDLAAHHHHHH
notes: also called clone 1
B7: TNFR2-binding stefin A variant CLONE 007 (designed binder)
chain: MIPGGLSEAKPATPEIQEIVDKVKPQLEEKTGETYGKLEAVQYKTQVVGLDIWGNNAGTNYYIKVRAGDNKYMHLKVFKSLADTARTEEAEDLVLTGYQVDKNKDDELTGFAAAEQKLISEEDLAAHHHHHH
notes: also called clone 7
B8: TNFR2-binding stefin A variant CLONE 012 (designed binder)
chain: MIPGGLSEAKPATPEIQEIVDKVKPQLEEKTGETYGKLEAVQYKTQVVYWGVQGALDGTNYYIKVRAGDNKYMHLKVFKSLNWNHEFDLVEDLVLTGYQVDKNKDDELTGFAAAEQKLISEEDLAAHHHHHH
notes: also called clone 12

Assays:
human TNFR2 = molecular target: T1, human TNFR2 (human, UniProt P20333 23-257, limits assumed); assay: selection of TNFR2-binding stefin A variants; method not described
T1 sequence (looked up): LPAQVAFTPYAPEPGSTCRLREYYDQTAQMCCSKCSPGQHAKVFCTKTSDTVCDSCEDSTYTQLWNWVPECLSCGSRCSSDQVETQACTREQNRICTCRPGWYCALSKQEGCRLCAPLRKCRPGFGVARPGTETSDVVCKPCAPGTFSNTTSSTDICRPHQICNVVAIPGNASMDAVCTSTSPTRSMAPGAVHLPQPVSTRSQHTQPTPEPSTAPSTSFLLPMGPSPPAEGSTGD

[1] = molecular target: T2, recombinant human CD40L (R&D Systems, 6420-CL-025/CF) (human, UniProt P29965 108-261, limits assumed); assay: binding ELISA (bELISA): plate coated with recombinant human CD40L, 1/3 serial dilutions of concentrated culture fluid, TMB read-out; first-named of the two gene-introduced cell lines (promoter not stated)
T2 construct: Bought protein coated on the ELISA plate
T2 sequence (looked up): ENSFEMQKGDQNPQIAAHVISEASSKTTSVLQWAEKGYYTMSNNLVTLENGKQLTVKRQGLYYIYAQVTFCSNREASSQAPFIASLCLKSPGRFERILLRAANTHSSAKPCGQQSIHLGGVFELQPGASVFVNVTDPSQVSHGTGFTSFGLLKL
Procedure: (§1) Each cell line was inoculated into a T175 flask at a cell density of 4.0×10³ cells/cm² using a culture medium. After culture at 37° C. and 5% CO₂ for 18 to 24 hours, the culture medium was thoroughly replaced with a fresh culture medium every 2 days, followed by culture. After culture for 3 days, the cells were harvested, and 7.0×10⁶ cells were inoculated into a T175 flask, followed by culture at 37° C. and 5% CO₂ for 18 to 24 hours. The culture medium was thoroughly removed, and the remaining medium was completely removed through washing with 10 mL of MEM alpha. 30 mL of an MEM alpha medium was added to a T175 flask, followed by culture for 48 hours. After 48 hours, all of the cell culture fluid was harvested and then centrifuged to remove residual cells and impurities. The cell culture fluid was transferred to a Vivaspin 20 and centrifuged, the culture fluid was concentrated, and the stefin A protein variant was quantified through sandwich ELISA (LSBio, LS-F4620). […] The unbound stefin A protein variant was removed through washing, after which the extent of binding between the stefin A protein variant and CD40L was detected based on a difference in absorbance resulting from reaction with a TMB substrate.

[2] = molecular target: T2, recombinant human CD40L (R&D Systems, …); assay: binding ELISA (bELISA): plate coated with recombinant human CD40L, 1/3 serial dilutions of concentrated culture fluid, TMB read-out; second-named of the two gene-introduced cell lines (promoter not stated)
Procedure: as §1

[3] = molecular target: T3, human Mega CD40L recombinant protein (Enzo Lifesciences) (human, UniProt P29965 116-261); assay: cell-based or functional assay
T3 sequence (looked up): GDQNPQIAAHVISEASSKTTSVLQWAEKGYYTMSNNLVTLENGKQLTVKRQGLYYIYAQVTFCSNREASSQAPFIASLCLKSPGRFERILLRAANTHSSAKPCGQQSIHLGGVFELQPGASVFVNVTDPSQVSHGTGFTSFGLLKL

| Binder | binding result (human TNFR2) | other results |
| --- | --- | --- |
| B1 | binds | – |
| B2 | binds | – |
| B3 | binds | – |
| B4 | binds | – |
| B5 | – | EC50 [1]: 3.9 pM; EC50 [2]: 5.3 pM; IC50 for hMega CD40L, HEK-Blue CD40L reporter cell assay (absorbance of HEK-Blue solution) [3]: 303 pM and 400 pM |
| B6 | binds | – |
| B7 | binds | – |
| B8 | binds | – |
